In experiment [1] the target is human CD98hc as expressed on normal blood cells, HUVEC cells and untreated U937 / THP-1 cells (human CD98hc having an N-glycan) (human) (UniProt P08195). Kind of experiment: FACS on untreated THP-1 cells, MEM-108 at 2.5 µg/ml, PE anti-mouse IgG.
The target is the same in experiment [2]. Kind of experiment: FACS on untreated U937 cells, MEM-108 at 2.5 µg/ml, PE anti-mouse IgG.
For experiment [3], the target named is human CD98hc with incomplete glycosylation (cells treated with tunicamycin, thapsigargin or bortezomib) (human) (UniProt P08195). Kind of experiment: FACS on tunicamycin-treated U937 cells, MEM-108 at 2.5 µg/ml, PE anti-mouse IgG.
For experiment [4] the target is unchanged. Kind of experiment: FACS on tunicamycin-treated THP-1 cells, MEM-108 at 2.5 µg/ml, PE anti-mouse IgG.

As to “MEM-108 antibody (anti-human CD98 antibody, Biolegend)”, the MFI (corrected value obtained by dividing with an isotype control) (MFI / MFI of isotype control) in experiment [1] worked out at 29.4; in experiment [2], 11.8; in experiment [3] it was 8.3; in experiment [4] it was 29.1.

The values above are taken from patent US20180230212A1.
